Laboratory results reported in the Human Domainome abundance scans (Beltran et al. 2025).
± gives the uncertainty stated by the source.

B1: POU domain, class 3, transcription factor 1, residues 247 to 324; numbered along this chain, Q03052 (parent)
chain: EDAPSSDDLEQFAKQFKQRRIKLGFTQADVGLALGTLYGNVFSQTTICRFEALQLSFKNMCKLKPLLNKWLEETDSSS

Variants of: B1
Experiment: abundance fitness (aPCA) (normalised: wild type 0, dead -1); higher = more abundant; growth selection in yeast, the domain comes from the species named
Details: Homo sapiens

Abundance fitness, by site and new letter:
K62: W -0.449 ± 0.1; H 0.03 ± 0.12; R -0.15 ± 0.053; G -0.365 ± 0.06; N 0.06 ± 0.18; C -0.224 ± 0.093; D -0.268 ± 0.22; L -0.119 ± 0.061; T -0.058 ± 0.083; M -0.075 ± 0.081; Y 0.035 ± 0.17; F -0.278 ± 0.15; Q -0.184 ± 0.082; E -0.095 ± 0.074; P -0.882 ± 0.21
R49: W 0.051 ± 0.42
S56: H -0.724 ± 0.26; T -0.287 ± 0.077; L -0.88 ± 0.12; I -0.717 ± 0.48; E -0.31 ± 0.072; V -0.945 ± 0.13; F -0.719 ± 0.26; A -0.472 ± 0.071; K -0.309 ± 0.092; C -0.439 ± 0.1; M -0.818 ± 0.19; P 0.09 ± 0.073; Y -0.745 ± 0.23; Q -0.577 ± 0.12; G -0.198 ± 0.046; R -0.501 ± 0.065; D 0.031 ± 0.088
Q54: E 0.011 ± 0.064; V -0.497 ± 0.1; F -0.858 ± 0.34; W -0.669 ± 0.11; A -0.089 ± 0.063; L -0.376 ± 0.085; N -0.187 ± 0.096; C -0.441 ± 0.15; K -0.098 ± 0.079; P -0.62 ± 0.15; R -0.195 ± 0.051; H -0.035 ± 0.14; T -0.145 ± 0.064; I -0.316 ± 0.14
N59: T -0.128 ± 0.087; S -0.084 ± 0.059; G -0.04 ± 0.04; D 0.193 ± 0.063; F -0.62 ± 0.22; W -0.223 ± 0.055; V -0.031 ± 0.047; R -0.017 ± 0.045; Q -0.025 ± 0.075; C -0.198 ± 0.088; M 0.04 ± 0.064; H 0.096 ± 0.1; E 0.132 ± 0.063; I -0.197 ± 0.23; L -0.074 ± 0.056; K 0.042 ± 0.074; A 0.08 ± 0.049
L66: G -0.78 ± 0.075; F -0.031 ± 0.12; A -0.226 ± 0.063; I 0.035 ± 0.1; Q -0.4 ± 0.12; P -0.644 ± 0.15; K -0.299 ± 0.094; M 0.162 ± 0.064; D -0.822 ± 0.24; E -0.936 ± 0.14
F50: Y -0.089 ± 0.22; R -0.785 ± 0.078; H -1.09 ± 0.48; I -0.556 ± 0.26; W -0.742 ± 0.1; P -0.484 ± 0.14; S -0.802 ± 0.11; L -0.718 ± 0.09; K -0.903 ± 0.28; M -0.597 ± 0.13; Q -0.498 ± 0.18; E -0.299 ± 0.092; G -0.736 ± 0.076; C -0.943 ± 0.26; D -0.993 ± 0.23; A -0.826 ± 0.12; N -0.874 ± 0.31; V -0.561 ± 0.075
K64: Q -0.009 ± 0.075; H -0.126 ± 0.15; T -0.401 ± 0.096; P -0.643 ± 0.2; G -0.911 ± 0.11; I -0.814 ± 0.37; R 0.002 ± 0.045; F -0.562 ± 0.3; E -0.564 ± 0.11; V -0.164 ± 0.064; L -0.511 ± 0.09; S -0.405 ± 0.089; A -0.199 ± 0.061; M -0.042 ± 0.076; D -0.653 ± 0.22; N -0.334 ± 0.35; C -0.38 ± 0.13; Y -0.564 ± 0.33
P65: A -0.241 ± 0.06; V -0.113 ± 0.05; S -0.179 ± 0.064; N -0.266 ± 0.16; K -0.156 ± 0.12; R -0.205 ± 0.051; Y -0.158 ± 0.11; Q -0.451 ± 0.14; L -0.284 ± 0.066; C -0.139 ± 0.099; W -0.389 ± 0.073; M -0.332 ± 0.1; T -0.246 ± 0.083; H -0.173 ± 0.13; G -0.167 ± 0.043; D -0.053 ± 0.083; F -0.175 ± 0.14; E -0.193 ± 0.072
K58: G -0.074 ± 0.046; T 0.021 ± 0.074; F -0.433 ± 0.35; R -0.142 ± 0.049; D -0.185 ± 0.21; Q -0.012 ± 0.068; C -0.53 ± 0.33; A -0.096 ± 0.055; S -0.152 ± 0.084; P 0.13 ± 0.069; I -0.045 ± 0.28; H -0.07 ± 0.13; L -0.347 ± 0.078; M -0.024 ± 0.095; V -0.272 ± 0.073; W -0.303 ± 0.073; E 0.031 ± 0.057
T45: V -0.148 ± 0.052; Q 0.167 ± 0.075; P -0.434 ± 0.12; L -0.102 ± 0.055; S -0.017 ± 0.052; Y -0.304 ± 0.28; W -0.443 ± 0.075; M -0.205 ± 0.08; N 0.112 ± 0.093; R 0.016 ± 0.041; I -0.557 ± 0.32
F57: G -0.275 ± 0.051; A -0.142 ± 0.064; W -0.127 ± 0.066; T -0.047 ± 0.091; L 0.003 ± 0.062; S -0.152 ± 0.072; R -0.012 ± 0.046; M -0.048 ± 0.086; Q 0.015 ± 0.11; V -0.144 ± 0.057; H 0.031 ± 0.13
